Here are results for one variant from IntAct's records for PubMed 22660580.

B1: Interleukin-1 receptor-like 1 (Mus musculus), P14719 (parent)
chain: MIDRQRMGLWALAILTLPMYLTVTEGSKSSWGLENEALIVRCPQRGRSTYPVEWYYSDTNESIPTQKRNRIFVSRDRLKFLPARVEDSGIYACVIRSPNLNKTGYLNVTIHKKPPSCNIPDYLMYSTVRGSDKNFKITCPTIDLYNWTAPVQWFKNCKALQEPRFRAHRSYLFIDNVTHDDEGDYTCQFTHAENGTNYIVTATRSFTVEEKGFSMFPVITNPPYNHTMEVEIGKPASIACSACFGKGSHFLADVLWQINKTVVGNFGEARIQEEEGRNESSSNDMDCLTSVLRITGVTEKDLSLEYDCLALNLHGMIRHTIRLRRKQPIDHRSIYYIVAGCSLLLMFINVLVIVLKVFWIEVALFWRDIVTPYKTRNDGKLYDAYIIYPRVFRGSAAGTHSVEYFVHHTLPDVLENKCGYKLCIYGRDLLPGQDAATVVESSIQNSRRQVFVLAPHMMHSKEFAYEQEIALHSALIQNNSKVILIEMEPLGEASRLQVGDLQDSLQHLVKIQGTIKWREDHVADKQSLSSKFWKHVRYQMPVPERASKTASVAAPLSGKACLDLKHF
partner: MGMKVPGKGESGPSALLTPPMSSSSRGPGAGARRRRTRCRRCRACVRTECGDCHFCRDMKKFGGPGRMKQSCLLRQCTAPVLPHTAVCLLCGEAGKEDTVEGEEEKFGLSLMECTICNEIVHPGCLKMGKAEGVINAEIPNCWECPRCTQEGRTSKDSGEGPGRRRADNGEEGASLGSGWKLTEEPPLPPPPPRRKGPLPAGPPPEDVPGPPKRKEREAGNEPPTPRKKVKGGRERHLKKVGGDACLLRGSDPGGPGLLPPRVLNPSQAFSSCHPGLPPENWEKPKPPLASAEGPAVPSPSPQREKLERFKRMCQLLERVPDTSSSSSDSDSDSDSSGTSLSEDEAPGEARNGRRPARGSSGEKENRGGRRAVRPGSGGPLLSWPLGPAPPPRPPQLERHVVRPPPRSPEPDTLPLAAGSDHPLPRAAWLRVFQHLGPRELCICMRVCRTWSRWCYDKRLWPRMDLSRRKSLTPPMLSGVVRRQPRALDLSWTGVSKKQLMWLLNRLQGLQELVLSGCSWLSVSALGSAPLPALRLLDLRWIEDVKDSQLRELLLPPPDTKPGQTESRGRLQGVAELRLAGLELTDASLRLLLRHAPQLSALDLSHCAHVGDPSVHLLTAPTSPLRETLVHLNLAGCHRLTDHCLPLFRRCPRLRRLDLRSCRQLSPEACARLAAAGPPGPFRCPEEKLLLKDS

This experiment covers variants of B1. The note with it: with fxl19_human FBXL19, Q6PCT2.
For the variant S442A, the “effect of a mutation on the interaction” value is on record as “decreasing interaction”.
